In patent US20220175920A1 (INSERM INSTITUT NATIONAL DE LA SANTE ET DE LA RECHERCHE …, published 2022):

B1: anti-CD40 11B6 human IgG4 antibody (antibody, V domains shown)
VH: EVQLVQSGAEVKKPGASVKISCKASGYSFTGYYMHWVKQAHGQGLEWIGRINPYNGATSYNQNFKDRATLTVDKSTSTAYMELSSLRSEDTAVYYCAREDYVYWGQGTTVTVSS
VL: DVVMTQSPLSLPVTLGQPASISCRSSQSLVHSNGNTYLHWYQQRPGQSPRLLIYKVSNRFSGVPDRFSGSGSGTDFTLKISRVEAEDVGVYFCSQSTHVPWTFGGGTKLEIKR
notes: also called mAb1 [11B6 VH/VkV2]; PAB3405
B2: anti-CD40 12E12 human IgG4 antibody (antibody, V domains shown)
VH: EVQLVESGGGLVQPGGSLKLSCATSGFTFSDYYMYWVRQAPGKGLEWVAYINSGGGSTYYPDTVKGRFTISRDNAKNTLYLQMNSLRAEDTAVYYCARRGLPFHAMDYWGQGTLVTVSS
VL: DIQMTQSPSSLSASVGDRVTITCSASQGISNYLNWYQQKPGKAVKLLIYYTSILHSGVPSRFSGSGSGTDYTLTISSLQPEDFATYYCQQFNKLPPTFGGGTK
notes: also called mAb6 [12E12]; anti-CD40 12E12 IgG4
B3: CP-870,893 formatted as human IgG4 (antibody, V domains shown)
VH: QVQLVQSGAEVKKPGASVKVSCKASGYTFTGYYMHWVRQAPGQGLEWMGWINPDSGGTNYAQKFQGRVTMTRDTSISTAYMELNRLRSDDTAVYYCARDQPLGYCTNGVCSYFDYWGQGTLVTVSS
VL: DIQMTQSPSSVSASVGDRVTITCRASQGIYSWLAWYQQKPGKAPNLLIYTASTLQSGVPSRFSGSGSGTDFTLTISSLQPEDFATYYCQQANIFPLTFGGGTK
notes: also called mAb5 [CP870893]; anti-CD40 CP
B4: anti-CD40 12B4 human IgG4 antibody (antibody, V domains shown)
VH: EVQLQQSGPELVKPGASVKMSCKASGYTFTDYVLHWVKQKPGQGLEWIGYINPYNDGTKYNEKFKGKATLTSDKSSSTAYMELSSLTSEDSAVYYCARGYPAYSGYAMDYWGQGTSVTVSS
VL: DIQMTQTTSSLSASLGDRVTISCRASQDISNYLNWYQQKPDGTVKLLIYYTSRLHSGVPSRFSGSGSGTDYSLTISNLEQEDIATYFCHHGNTLPWTFGGGTK
notes: also called mAb3 [12B4]
B5: anti-CD40 24A3 human IgG4 antibody (antibody, V domains shown)
VH: DVQLQESGPDLVKPSQSLSLTCTVTGYSITSDYSWHWIRQFPGNKLEWMGYIYYSGSTNYNPSLKSRISITRDTSKNQFFLQLNSVTTEDSATYFCARFYYGYSFFDYWGQGTTLTVSS
VL: QIVLTQSPAFMSASPGEKVTMTCSASSSVSYMHWYQQKSGTSPKRWIYDTSKLASGVPARFSGSGSGTSYSLTISSMEAEDAATYYCQQWSSNPLTFGAGTK
notes: also called mAb4 [24A3]

Molecular target: T1, human CD40 ectodomain fused to FAS transmembrane and intracellular domains, on CHO cells (human)
T1 construct: also called CD40-FAS; WT CD40-FAS CHO
T1 sequence (chain, as listed by the source limits assumed): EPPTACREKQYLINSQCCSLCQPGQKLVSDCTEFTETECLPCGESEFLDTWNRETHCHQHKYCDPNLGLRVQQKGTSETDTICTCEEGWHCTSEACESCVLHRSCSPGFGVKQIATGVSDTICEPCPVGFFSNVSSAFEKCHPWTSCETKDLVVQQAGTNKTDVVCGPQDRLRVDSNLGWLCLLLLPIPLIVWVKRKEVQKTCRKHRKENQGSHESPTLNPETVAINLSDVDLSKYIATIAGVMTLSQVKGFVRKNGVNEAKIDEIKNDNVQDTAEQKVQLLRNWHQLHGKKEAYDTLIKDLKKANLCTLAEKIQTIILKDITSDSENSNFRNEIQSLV
Test: flow cytometry, stably transfected CHO cells, 1 h on ice, goat anti-human IgG-PE, % of events in gate P1 [panel WT CD40-FAS CHO]

Point of comparison: B2, “EC50 (read off the curve)” value ~0.0005 nM. Against it:
- B1 — 1.7-fold lower, ~0.0003 nM
- B3 — 8-fold higher, ~0.004 nM

Molecular target: T2, human CD40 on cells (B cells, MDDCs, stably transfected CHO cells) (human, UniProt P25942 21-277)
T2 sequence (P25942 21-277): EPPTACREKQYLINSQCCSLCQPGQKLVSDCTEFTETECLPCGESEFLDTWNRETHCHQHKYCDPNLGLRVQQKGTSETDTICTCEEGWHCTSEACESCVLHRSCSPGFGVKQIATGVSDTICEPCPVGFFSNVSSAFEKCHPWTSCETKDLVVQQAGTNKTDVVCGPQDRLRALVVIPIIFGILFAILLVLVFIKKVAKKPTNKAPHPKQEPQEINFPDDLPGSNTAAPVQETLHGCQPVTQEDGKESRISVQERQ
Test: cell-based or functional assay

B1 and B5 cannot be ordered by “EC50 (nM) B cell: dose for 50% of maximum B cell proliferation” value: at least 10 nM for the first, over 10 nM for the second.

Point of comparison: B4, “EC50/EC50 CP, B cell proliferation” value ~10 ratio. Against it:
- B1 — higher, ≥ 100 ratio
- B2 — the same, ~10 ratio
- B3 — lower, 1 ratio
- B5 — higher, ≥ 1000 ratio

In the case of B1, the “EC50 w/sCD40L (nM): B cell proliferation with constant 6 nM soluble human CD40L” value is reported as at least 0.1 nM.

Point of comparison: B5, “Δ w/sCD40L (fold): fold difference in B cell proliferation EC50 with constant 6 nM soluble human CD40L” value ~100 fold. Against it:
- B1 — not separable, ≥ 100 fold
- B2 — lower, ~0 fold
- B3 — lower, ~0 fold
- B4 — lower, ~0 fold

Molecular target: T2, human CD40 on cells (B cells, MDDCs, …)
Test: cell-based or functional assay
Remark: another data set of the same source

Point of comparison: B3, “EC50 (nM) cytokines: 50% of maximum cytokine secretion by MDDCs” value ~0.1 nM. Against it:
- B1 — higher, > 10 nM
- B2 — higher, > 10 nM
- B4 — higher, > 10 nM
- B5 — higher, > 10 nM

Point of comparison: B3, “EC50/EC50 CP, MDDC cytokine secretion” value 1 ratio. Against it:
- B1 — higher, > 1000 ratio
- B2 — higher, > 1000 ratio
- B4 — higher, ≥ 100 ratio
- B5 — higher, > 1000 ratio

B1 and B2 cannot be ordered by “EC50 w/sCD40L (nM): MDDC cytokine secretion with constant suboptimal soluble human CD40L” value: at least 0.1 nM for the first, over 10 nM for the second.

B3 and B5 cannot be ordered by “EC50 w/sCD40L (nM): MDDC cytokine secretion with constant suboptimal soluble human CD40L” value: at least 0.01 nM for the first, at least 10 nM for the second.

Point of comparison: B2, “Δ w/sCD40L (fold): MDDC cytokine secretion EC50” value ~0 fold. Against it:
- B1 — higher, > 1000 fold
- B3 — higher, ~100 fold
- B4 — the same, ~0 fold
- B5 — higher, > 1000 fold

Molecular target: CD40 E28A FAS (mutated CD40 ectodomain fused to FAS) on CHO cells (human)
Sequence (chain, as listed by the source E28A E28A): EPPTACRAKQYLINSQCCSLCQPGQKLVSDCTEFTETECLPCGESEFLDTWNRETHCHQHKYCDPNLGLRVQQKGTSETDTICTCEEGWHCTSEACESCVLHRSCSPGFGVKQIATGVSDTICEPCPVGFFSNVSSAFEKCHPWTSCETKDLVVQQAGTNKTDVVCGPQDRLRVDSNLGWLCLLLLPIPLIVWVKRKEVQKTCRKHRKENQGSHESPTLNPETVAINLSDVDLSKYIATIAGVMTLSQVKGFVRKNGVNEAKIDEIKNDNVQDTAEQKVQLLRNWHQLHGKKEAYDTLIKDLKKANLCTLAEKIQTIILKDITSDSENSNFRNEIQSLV
Test: flow cytometry, stably transfected CHO cells, 1 h on ice, goat anti-human IgG-PE, % of events in gate P1 [panel CD40 E28A FAS CHO]

Point of comparison: B3, “EC50 (read off the curve)” value ~0.01 nM. Against it:
- B1 — 50-fold lower, ~0.0002 nM
- B2 — 50-fold lower, ~0.0002 nM

Molecular target: T3, human CD40 ectodomain mouse Fc fusion protein (human, UniProt P25942 21-193)
T3 construct: a human Fc version was used with the mouse mAbs; also called soluble CD40
T3 sequence (P25942 21-193): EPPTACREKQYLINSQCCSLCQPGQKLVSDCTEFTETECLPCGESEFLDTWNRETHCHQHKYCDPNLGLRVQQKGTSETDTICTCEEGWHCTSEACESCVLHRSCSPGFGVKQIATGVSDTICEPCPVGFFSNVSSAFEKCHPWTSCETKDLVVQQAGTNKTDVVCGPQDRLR
Test: competition flow cytometry: human IgG4 mAb titrated into 2 ug/ml human CD40 ectodomain-mouse Fc, 1 h on ice, then added to human CD40L-transfected L cells; cell-bound CD40-Fc detected with anti-IgG-PE; blocked ligand: CD40L on L cells [right panel]

Point of comparison: B4, “IC50 (read off the curve)” value ~0.2 µg/mL. Against it:
- B2 — 2.5-fold higher, ~0.5 µg/mL

Molecular target: T2, human CD40 on cells (B cells, MDDCs, …)
Test: flow cytometry, stably transfected CHO cells, 1 h on ice, goat anti-human IgG-PE, % of events in gate P1 [panel CD40 CHO]

Point of comparison: B2, “EC50 (read off the curve)” value ~0.0003 nM. Against it:
- B1 — within 1.5-fold, ~0.0002 nM
- B3 — 10-fold higher, ~0.003 nM

Molecular target: CD40 R27A FAS (mutated CD40 ectodomain fused to FAS) on CHO cells (human)
Sequence (chain, as listed by the source R27A R27A): as the sequence (chain, as listed by the source E28A E28A) above, with R7A, A8E counted along it
Test: flow cytometry, stably transfected CHO cells, 1 h on ice, goat anti-human IgG-PE, % of events in gate P1 [panel CD40 R27A FAS CHO]

Point of comparison: B1, “EC50 (read off the curve)” value ~0.0003 nM. Against it:
- B2 — the same, ~0.0003 nM

B3: no binding.

Molecular target: T1, human CD40 ectodomain fused to FAS …
Test: cell-based or functional assay

Point of comparison: B2, “EC50 of killing of CD40-FAS CHO cells (loss of MTT reduction)” value ~1 nM. Against it:
- B1 — 2.5-fold higher, ~2.5 nM

Molecular target: T4, cohesin-human CD40 ectodomain protein (P3398) (human)
T4 construct: SPR analyte; also called soluble human CD40 ectodomain; liquid phase soluble human CD40 ectodomain; not shown: cohesin domain of P3398 and its junction to CD40
T4 sequence (chain, as listed by the source limits assumed): as the sequence (P25942 21-193) above
Test: SPR

In the case of B2, the Kd is reported as 28 nM.

Molecular target: T3, human CD40 ectodomain mouse Fc fusion …
Test: competition, flow cytometry: mAb pre-incubated with CD40 ectodomain-Fc, then CD40L-transfected L cells

With B3 the “fold higher antibody level required to partially block CD40 binding to CD40L, against the stoichiometric amounts of 12B4 and 12E12” value was over 20 fold.

Molecular target: T4, cohesin-human CD40 ectodomain protein …
Test: SPR (SensiQ Pioneer), hIgG4 mAb captured on Protein A/G, cohesin-human CD40 ectodomain in solution

Point of comparison: B5, Kd 97 nM. Against it:
- B1 — 2.2-fold higher, 217 nM
- B2 — 2.9-fold lower, 33 nM
- B3 — within 1.5-fold, 71 nM
- B4 — within 1.5-fold, 100 nM

Point of comparison: B3, koff 0.0022 s⁻¹. Against it:
- B1 — 29-fold higher, 0.064 s⁻¹
- B2 — 2.1-fold higher, 0.0046 s⁻¹
- B4 — 12-fold higher, 0.027 s⁻¹
- B5 — 3.6-fold higher, 0.008 s⁻¹

Point of comparison: B3, kon 46000 M⁻¹ s⁻¹. Against it:
- B1 — 6.5-fold higher, 300000 M⁻¹ s⁻¹
- B2 — 3.3-fold higher, 150000 M⁻¹ s⁻¹
- B4 — 5.4-fold higher, 250000 M⁻¹ s⁻¹
- B5 — 1.8-fold higher, 83000 M⁻¹ s⁻¹
